Test [1] deals with T1, human CD16A (V158) on NK92mi cells (human, UniProt P08637 17-254).
T1 construct: NK92mi cells co-transduced with CD16A (V158) and FcRgamma cDNAs; also called NK92mi/CD16A V158; NK92mi/CD16A
Nature of the test: flow cytometry, biotinylated antibody on NK92mi/CD16A V158 cells, w/o huIgG. (In general: In flow cytometry, cells or beads pass a laser one at a time.)

For test [2], the target named is T2, human CD16A (F158) on NK92mi cells (human, UniProt P08637 17-254).
T2 construct: NK92mi cells co-transduced with CD16A (F158) and FcRgamma cDNAs; also called NK92mi/CD16A F158
Nature of the test: flow cytometry, biotinylated antibody on NK92mi/CD16A F158 cells, with 10 mg/ml huIgG1 as competitor.

Test [3] concerns the target T2, human CD16A (F158) on NK92mi cells. The test can be described thus: flow cytometry, biotinylated antibody on NK92mi/CD16A F158 cells, w/o huIgG.
Test [4] concerns the target T1, human CD16A (V158) on NK92mi cells. The test can be described thus: flow cytometry, biotinylated antibody on NK92mi/CD16A V158 cells, with 10 mg/ml huIgG1 as competitor.
Test [5] deals with T3, human CD16A-His6 (V158) (human, UniProt P08637 17-208).
T3 construct: Bought (Sino Biologics) ECD fragment; also called CD16A 158V; human CD16A (V158); not shown: six-histidine tag (His6)
The test can be described thus: SPR; BG1222P captured by biotin anti-human Fc VHH on neutravidin, analyte in solution.

Test [6] has as its target T4, human CD16A-His6 (F158) (human, UniProt P08637 17-208).
T4 construct: Bought ECD fragment; also called human CD16A (F158); not shown: six-histidine tag (His6)
The test is described as above.

In test [7] the target is T3, human CD16A-His6 (V158). The test can be described thus: SPR; BG1222P captured by biotin anti-human Fc VHH on neutravidin; column head prints 'KD (nM)', koff/kon shows M.
In test [8] the target is T4, human CD16A-His6 (F158). The test is described as above.

T4 sequence (P08637 17-208): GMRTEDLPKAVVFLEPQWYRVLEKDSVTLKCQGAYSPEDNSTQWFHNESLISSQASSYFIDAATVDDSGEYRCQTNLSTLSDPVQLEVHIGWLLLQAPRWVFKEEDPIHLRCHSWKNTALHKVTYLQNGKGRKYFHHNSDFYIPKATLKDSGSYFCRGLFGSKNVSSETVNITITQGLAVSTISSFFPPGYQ
T3 sequence (P08637 17-208 F176V): as the sequence (P08637 17-208) above, with F160V counted along it
T2 sequence (P08637 17-254 limits assumed): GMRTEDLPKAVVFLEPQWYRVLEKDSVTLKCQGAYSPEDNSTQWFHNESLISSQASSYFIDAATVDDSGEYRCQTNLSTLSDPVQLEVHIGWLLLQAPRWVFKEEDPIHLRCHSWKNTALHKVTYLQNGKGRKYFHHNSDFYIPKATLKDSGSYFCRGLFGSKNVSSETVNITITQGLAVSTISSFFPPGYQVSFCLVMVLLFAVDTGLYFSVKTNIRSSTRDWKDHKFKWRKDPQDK
T1 sequence (P08637 17-254 F176V limits assumed): as the sequence (P08637 17-254 limits assumed) above, with F160V counted along it

B1: MUC1×CD16A multi-specific antibody BG1222P (bispecific antibody, human IgG1, kappa)
chain: EVQLVESGGGLVQPGGSLRLSCAASGRTFGSYAVGWFRQAPGKGREFVAAIRRSDATTDYVDSVKGRFTISRDNAKNTVYLQMNSLKPEDTAVYYCAASDSDYEPLGDYWGQGTLVTVSSGGGGSGGGGSEVQLVESGGGLVQPGGSLRLSCAASGRTFGSYAVGWFRQAPGKGREFVAAIRRSDATTDYVDSVKGRFTISRDNAKNTVYLQMNSLKPEDTAVYYCAASDSDYEPLGDYWGQGTLVTVSSEPKSSDKTHTCPPCPAPELLGGPSVFLFPPKPKDTLYITREPEVTCVVVDVSHEDPEVKFNWYVDGVEVHNAKTKPREEQYNSTYRVVSVLTVLHQDWLNGKEYKCKVSNKALPAPIEKTISKAKGQPREPQVYTLPPSREEMTKNQVSLWCLVKGFYPSDIAVEWESNGQPENNYKTTPPVLDSDGSFFLYSKLTVDKSRWQQGNVFSCSVMHEALHNHYTQKSLSLSPGK
heavy: EVQLLESGGGLVQPGGSLRLSCAASGFTFNDYIMSWVRQAPGKGLEWVATVSSGGDNTYYPDSVKGRFTISRDNSKNTLYLQMNSLRAEDTAVYYCTRYGGLGAMDYWGQGTLVTVSSASTKGPSVFPLAPSSKSTSGGTAALGCLVKDYFPEPVTVSWNSGALTSGVHTFPAVLQSSGLYSLSSVVTVPSSSLGTQTYICNVNHKPSNTKVDKKVEPKSCDKTHTCPPCPAPELLGGPSVFLFPPKPKDTLYITREPEVTCVVVDVSHEDPEVKFNWYVDGVEVHNAKTKPREEQYNSTYRVVSVLTVLHQDWLNGKEYKCKVSNKALPAPIEKTISKAKGQPREPQVYTLPPSREEMTKNQVSLSCAVKGFYPSDIAVEWESNGQPENNYKTTPPVLDSDGSFFLVSKLTVDKSRWQQGNVFSCSVMHEALHNHYTQKSLSLSPGK
light: DIQMTQSPSSLSASVGDRVTITCRASGNIHNYLTWYQQKPGKAPKLLIYNAKTLASGVPSRFSGSGSGTDFTLTISSLQPEDFATYYCQHFWSVPYTFGQGTKLEIKRTVAAPSVFIFPPSDEQLKSGTASVVCLLNNFYPREAKVQWKVDNALQSGNSQESVTEQDSKDSTYSLSSTLTLSKADYEKHKVYACEVTHQGLSSPVTKSFNRGEC
notes: '2+1' IgG-like format: chain 1 = tandem BG526P VHHs-hinge-Fc (knob), chain 2 = huBG219P-E39 heavy chain (hole), chain 3 = huBG219P-E39 kappa light chain; YTE mutations in both Fc; also called BG11222P
As for B1, the EC50 (as a rule, the concentration needed to bring the measured effect to its halfway point) in test [1] was found to be 350 pM; in test [2], 7990 pM; in test [3], 970 pM; in test [4], 33900 pM. For the same molecule, the koff (as a rule, a measure of how fast the partners let go of each other) was 4.22e-05 s⁻¹ with human CD16A-His6 (V158) [5] and 8.52e-05 s⁻¹ with human CD16A-His6 (F158) [6]. Moreover, the kon (in general, the second-order rate constant of association) with human CD16A-His6 (V158) [5] worked out at 886000 M⁻¹ s⁻¹; with human CD16A-His6 (F158) [6], 579000 M⁻¹ s⁻¹. In addition, the Kd (commonly the constant that tells how readily two partners part at equilibrium) was determined as 47.7 pM in the test with human CD16A-His6 (V158) [7] and 147 pM with human CD16A-His6 (F158) [8].

These data come from patent US20250075002A1 (BEIGENE SWITZERLAND, published 2025).
